Test results reported in patent WO2013125221A1.
Where no end group is shown, it is not given here.

Legend:
[1] = molecular target: Herceptin scFv antibody (His-tagged, self-prepared); test: peptide magnetic bead immunoprecipitation, SDS-PAGE / anti-His blot, band intensity semi-quantified
[2] = molecular target: Herceptin scFv antibody (His-tagged, self-prepared); test: peptide magnetic bead immunoprecipitation, SDS-PAGE / anti-His blot, semi-quantitative

Binder | Herceptin scFv antibody recovery rate [1] [%] | Herceptin scFv antibody recovery rate [2] [%]
WSEYDIPTPQIP (also: biotinylated (site not given here)) [code 4 peptide] | 30 | 23
FHRSHWYQTWVP (also: biotinylated (site not given here)) [code 166 peptide] | 30 | 
